From the supplement of paper PMC10724198
± gives the standard deviation of the averaged measurements.

What follows are sequences tested on Saccharomyces cerevisiae (assay: protein stability index of tFT-peptide fusion (C-terminal peptide) (PSI (0-1 scale)); higher = more stable (slower turnover)). Settings: genetic background: wild type; temperature: 30 C.
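Note: PSI is a weighted mean of sequencing reads over stability bins, variants kept only with over 10 reads, mCherry proximal and sfGFP distal, peptide attached via GGGS linker.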

| Sequence | protein stability index |
| --- | --- |
| PLSPPLPPAIPS | 0.698 ± 0.063 |
| PLSPPPRPPPSP | 0.654 ± 0.066 |
| PLSPPPRRPPSP | 0.655 ± 0.022 |
| PLSSILSPSSPA | 0.729 ± 0.052 |
| PLTFRYQSHSAH | 0.702 ± 0.11 |
| PLTNPPRSRKSS | 0.783 ± 0.12 |
| PLTTTPPTRHTP | 0.6978 ± 0.004 |
| PLWHCFRFLSGS | 0.607 ± 0.014 |
| PMPPPRRPTALC | 0.716 ± 0.038 |
| PNPPPPPPPSSP | 0.742 ± 0.058 |
| PNRPPLQFFPPP | 0.697 ± 0.05 |
| PNSTIVATKGVT | 0.648 ± 0.076 |
| PPAASSFRLSSC | 0.751 ± 0.1 |
| PPALPPTGHPPF | 0.709 ± 0.013 |
| PPAPFAICRTRS | 0.654 ± 0.018 |
| PPAPPAPPPSVG | 0.708 ± 0.03 |
| PPAPPPPPPSPP | 0.659 ± 0.029 |
| PPAPPPPSTPHP | 0.672 ± 0.13 |
| PPAPPPVSPPRP | 0.7075 ± 0.0027 |
| PPAPPSQPINAT | 0.709 ± 0.053 |
| PPAPSPPLPSLA | 0.694 ± 0.037 |
| PPAPTHSAPSQI | 0.655 ± 0.07 |
| PPARTPPGLPRP | 0.723 ± 0.29 |
| PPASPPAPRPPV | 0.759 ± 0.018 |
| PPATTPASTNLQ | 0.7 ± 0.017 |
| PPAVDSSPRSRD | 0.7148 ± 0.0019 |

| Sequence | protein stability index |
| --- | --- |
| PPCAPFSPPALP | 0.659 ± 0.05 |
| PPCCFPRSPSPS | 0.714 ± 0.049 |
| PPCPAPLSPPLG | 0.676 ± 0.049 |
| PPCPSPPLFLPS | 0.687 ± 0.063 |
| PPCRREEQTDNH | 0.682 ± 0.059 |
| PPCTVKAQRAYD | 0.694 ± 0.035 |
| PPDALTHPTPPQ | 0.703 ± 0.013 |
| PPFFLLLPPTIF | 0.67 ± 0.063 |
| PPFPKFPRPRLH | 0.738 ± 0.04 |
| PPFSHLPYLLPP | 0.685 ± 0.015 |
| PPFTARPATLAR | 0.565 ± 0.017 |
| PPFVPGEVRRTV | 0.6867 ± 0.0036 |
| PPGLRSYACCRN | 0.7615 ± 0.0046 |
| PPGNPPPRRLTS | 0.695 ± 0.053 |
| PPGPLPPLSSTP | 0.661 ± 0.034 |
| PPGPVVPPPPPD | 0.664 ± 0.027 |
| PPHFPPRPRPGP | 0.685 ± 0.015 |
| PPHHSLSPPLPP | 0.6607 ± 0.0014 |
| PPHPPAPHPSPT | 0.733 ± 0.069 |
| PPHPPNPLPTPQ | 0.829 ± 0.17 |
| PPHSALPLPPSP | 0.726 ± 0.039 |
| PPHSHCPSAPHN | 0.643 ± 0.082 |
| PPLALPPGPARP | 0.738 ± 0.016 |
| PPLAMVLYSLFE | 0.556 ± 0.013 |
| PPLAPDPPPRVY | 0.654 ± 0.013 |
| PPLAPLPSAPLR | 0.674 ± 0.058 |

| Sequence | protein stability index |
| --- | --- |
| PPLDPPPAPPPP | 0.693 ± 0.08 |
| PPLFPYRPPQPT | 0.697 ± 0.099 |
| PPLHPPPPAFVF | 0.64175 ± 0.00037 |
| PPLHSSPPAVPP | 0.699 ± 0.038 |
| PPLLPLSPRPPA | 0.704 ± 0.089 |
| PPLLPPPHPFPP | 0.6656 ± 0.0053 |
| PPLLPPPPAFVF | 0.668 ± 0.0069 |
| PPLLPRLLTPTP | 0.671 ± 0.087 |
| PPLLPSPPRPPL | 0.774 ± 0.078 |
| PPLNPPRSPFSP | 0.6814 ± 0.0018 |
| PPLPAPPQSPHT | 0.705 ± 0.028 |
| PPLPLTLRSSPS | 0.677 ± 0.031 |
| PPLPPLPAPSPV | 0.652 ± 0.021 |
| PPLPPPSVRPSS | 0.63 ± 0.028 |
| PPLPPPTPLQCL | 0.696 ± 0.027 |
| PPLPPSLPPPPP | 0.63 ± 0.12 |
| PPLPPSPPCPPA | 0.642 ± 0.079 |
| PPLPPSSPRSLL | 0.701 ± 0.018 |
| PPLPRLPPPPLP | 0.627 ± 0.029 |
| PPLPRSPSPPPP | 0.644 ± 0.028 |
| PPLRLSHFPRAD | 0.659 ± 0.06 |
| PPLRPAADFRTT | 0.733 ± 0.093 |
| PPLRPGLLYSPS | 0.687 ± 0.019 |
| PPLSLSPYPLPH | 0.69464 ± 0.0002 |
| PPLVHPCPSSHI | 0.801 ± 0.088 |
| PPNTSVPSSLGR | 0.667 ± 0.038 |

| Sequence | protein stability index |
| --- | --- |
| PPPAPARPPTPP | 0.686 ± 0.11 |
| PPPAPPCRLMSP | 0.719 ± 0.059 |
| PPPAPPLLPPLP | 0.718 ± 0.033 |
| PPPAPPPSPPSN | 0.675 ± 0.044 |
| PPPAPPTPPSPP | 0.628 ± 0.028 |
| PPPARSRCTHPT | 0.706 ± 0.026 |
| PPPASLTSPRQP | 0.731 ± 0.013 |
| PPPASPLVPPSP | 0.712 ± 0.021 |
| PPPAYTPPLPPP | 0.669 ± 0.0073 |
| PPPCPPPRRHPP | 0.605 ± 0.022 |
| PPPDSPPLPAPP | 0.659 ± 0.033 |
| PPPFLQPLPASP | 0.729 ± 0.045 |
| PPPFSPPAPSPP | 0.669 ± 0.053 |
| PPPHAKPPPGPL | 0.672 ± 0.019 |
| PPPHIPPPPLSA | 0.682 ± 0.025 |
| PPPHPLPPLPAT | 0.744 ± 0.043 |
| PPPIPGDPTPCP | 0.667 ± 0.021 |
| PPPLACLPLSLR | 0.71 ± 0.043 |
| PPPLACPSPPVT | 0.734 ± 0.12 |
| PPPLFPALHHPP | 0.639 ± 0.051 |
| PPPLLPPHLPLL | 0.717 ± 0.032 |
| PPPLLPPRPLAP | 0.731 ± 0.019 |
| PPPLLPPTLPPR | 0.713 ± 0.047 |
| PPPLPLPPPLPP | 0.533 ± 0.046 |
| PPPLPLPSPPPP | 0.671 ± 0.089 |
| PPPLPPIPSRPH | 0.701 ± 0.019 |

| Sequence | protein stability index |
| --- | --- |
| PPPLPPLSPPPS | 0.749 ± 0.023 |
| PPPLPPPPPAPS | 0.692 ± 0.0096 |
| PPPLPPPPPPPP | 0.673 ± 0.026 |
| PPPLPPPTPLPT | 0.681 ± 0.12 |
| PPPLPPRLPHLA | 0.664 ± 0.036 |
| PPPLRAFPPPLL | 0.648 ± 0.06 |
| PPPLSCPRPPIT | 0.664 ± 0.031 |
| PPPLSLLPPCSP | 0.678 ± 0.12 |
| PPPNPFRGPFPL | 0.663 ± 0.035 |
| PPPPAPPPLLLP | 0.717 ± 0.044 |
| PPPPAPSPPIPP | 0.692 ± 0.037 |
| PPPPDPPAPSSP | 0.749 ± 0.078 |
| PPPPFPPPSPPL | 0.7147 ± 0.0063 |
| PPPPFRPSPPLP | 0.664 ± 0.0084 |
| PPPPHAHFPPPP | 0.652 ± 0.013 |
| PPPPHPPPPLFP | 0.714 ± 0.083 |
| PPPPHPPRPPRP | 0.676 ± 0.0074 |
| PPPPLAPAPPAF | 0.744 ± 0.016 |
| PPPPLLPPPIPL | 0.6847 ± 0.0032 |
| PPPPLLRSPLHL | 0.731 ± 0.011 |
| PPPPLPDTLRSP | 0.6238 ± 0.0053 |
| PPPPLPLPPFSP | 0.8017 ± 0.0011 |
| PPPPLPPCTPAT | 0.6797 ± 0.0047 |
| PPPPLPPLSPSP | 0.7604 ± 0.0068 |
| PPPPLPPSPCSL | 0.567 ± 0.019 |
| PPPPLRPPAAPP | 0.639 ± 0.005 |

| Sequence | protein stability index |
| --- | --- |
| PPPPPLPRSPSP | 0.807 ± 0.12 |
| PPPPPLYLPRFV | 0.675 ± 0.056 |
| PPPPPPARLPSP | 0.711 ± 0.017 |
| PPPPPPATPPPS | 0.681 ± 0.045 |
| PPPPPPGHLPRL | 0.76 ± 0.05 |
| PPPPPPGSPTRP | 0.788 ± 0.075 |
| PPPPPPLFPPCP | 0.659 ± 0.11 |
| PPPPPPLSPSPP | 0.756 ± 0.011 |
| PPPPPPLVLSPL | 0.678 ± 0.02 |
| PPPPPPPHLPSL | 0.711 ± 0.079 |
| PPPPPPPLPSLR | 0.671 ± 0.0086 |
| PPPPPPPLVPPL | 0.703 ± 0.12 |
| PPPPPPPNSHPH | 0.678 ± 0.021 |
| PPPPPPPPAPLP | 0.708 ± 0.089 |
| PPPPPPPPLPPP | 0.5856 ± 0.0041 |
| PPPPPPPPPPPP | 0.627 ± 0.031 |
| PPPPPPPPPPSL | 0.746 ± 0.061 |
| PPPPPPPPPPSS | 0.709 ± 0.13 |
| PPPPPPPPPRSS | 0.718 ± 0.021 |
| PPPPPPPPSALP | 0.719 ± 0.043 |
| PPPPPPPRPDPP | 0.557 ± 0.04 |
| PPPPPPPYPLIP | 0.67 ± 0.013 |
| PPPPPPRFHALH | 0.715 ± 0.021 |
| PPPPPPRRSSPP | 0.681 ± 0.069 |
| PPPPPPSPLGPP | 0.674 ± 0.057 |
| PPPPPPTPSLRL | 0.72 ± 0.021 |

| Sequence | protein stability index |
| --- | --- |
| PPPPPPTRCHTP | 0.728 ± 0.056 |
| PPPPPPVPSRPL | 0.644 ± 0.046 |
| PPPPPPVRSLPL | 0.72 ± 0.088 |
| PPPPPRAAPPPP | 0.668 ± 0.061 |
| PPPPPRHPSSPP | 0.71068 ± 0.00014 |
| PPPPPRPPLPHL | 0.686 ± 0.038 |
| PPPPPSAISPTH | 0.732 ± 0.0036 |
| PPPPPSFSFPPT | 0.706 ± 0.049 |
| PPPPPSHPPPLS | 0.571 ± 0.0097 |
| PPPPPTALLRPP | 0.731 ± 0.18 |
| PPPPRPAPAPLL | 0.6948 ± 0.0067 |
| PPPPRTLASPSY | 0.679 ± 0.026 |
| PPPPSAPPLPLP | 0.61 ± 0.018 |
| PPPPSLPPPLPF | 0.7844 ± 0.0011 |
| PPPPSPALPTFP | 0.715 ± 0.049 |
| PPPPSPFPLPSP | 0.6846 ± 0.0024 |
| PPPPSPSPLPPS | 0.751 ± 0.015 |
| PPPPTPPYTPVP | 0.623 ± 0.032 |
| PPPQGSQPSTLS | 0.739 ± 0.051 |
| PPPQHLPPPSLS | 0.676 ± 0.019 |
| PPPRPICCALNS | 0.655 ± 0.014 |
| PPPRPLQPRPRP | 0.6502 ± 0.0019 |
| PPPRPPALPPLP | 0.69 ± 0.016 |
| PPPRPPPASPVP | 0.708 ± 0.076 |
| PPPRPPSPLSLA | 0.643 ± 0.1 |
| PPPRPTVPPGSR | 0.668 ± 0.014 |

| Sequence | protein stability index |
| --- | --- |
| PPPRSPPFPSPL | 0.689 ± 0.042 |
| PPPRTLARSRLP | 0.74 ± 0.016 |
| PPPRTYLPRPRL | 0.764 ± 0.0085 |
| PPPSDPPPSPPP | 0.665 ± 0.016 |
| PPPSFPDWRYRW | 0.755 ± 0.017 |
| PPPSFPPFFPSF | 0.731 ± 0.014 |
| PPPSHPLSPPRP | 0.717 ± 0.24 |
| PPPSPAPLPAGP | 0.682 ± 0.061 |
| PPPSPPPPPSLP | 0.669 ± 0.019 |
| PPPSPRSAPAAS | 0.711 ± 0.1 |
| PPPSPTSPPPPS | 0.69 ± 0.018 |
| PPPSSSLLPLPF | 0.817 ± 0.14 |
| PPPSTPLSPSSP | 0.72 ± 0.11 |
| PPPTHPHLSSAL | 0.73 ± 0.04 |
| PPPTHRDPLPTP | 0.684 ± 0.048 |
| PPPTPSSLLSTP | 0.701 ± 0.057 |
| PPPTSSALPALV | 0.736 ± 0.037 |
| PPPVLSLPPLPV | 0.668 ± 0.028 |
| PPPVPLPPPRSL | 0.736 ± 0.055 |
| PPPVPPLGPSRA | 0.693 ± 0.044 |
